Results published in the supplement of paper PMC5998384.

Assays:
HeLa Kyoto [1] = experiment: solubility in G1/S (NP-40 vs SDS abundance) (log2 ratio); higher = more soluble; conditions: cell cycle stage: G1/S
HeLa Kyoto [2] = experiment: melting temperature (median over replicates), in situ; higher = more thermally stable
HeLa Kyoto [3] = experiment: solubility change mitosis vs G1/S (difference of NP-40 vs SDS log2 ratios) (log2 ratio difference); higher = more soluble in mitosis
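Wherever melting temperature (median over replicates), in situ is given: HeLa Kyoto cells synchronized by double thymidine or nocodazole block, proteins quantified by TMT10plex mass spectrometry, three independent biological replicates.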
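Wherever solubility change mitosis vs G1/S (difference of NP-40 vs SDS log2 ratios) is given: synchronized HeLa Kyoto cells (double thymidine block for G1/S, nocodazole release for mitosis), protein amounts in NP-40 versus SDS lysates quantified by mass spectrometry, three biological replicates.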
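Wherever solubility in G1/S (NP-40 vs SDS abundance) is given: HeLa Kyoto cells arrested at G1/S by double thymidine block, proteins quantified by TMT10plex mass spectrometry in mild NP-40 versus SDS extracts, three biological replicates.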

| Sequence | solubility in G1/S (log2) (HeLa Kyoto [1]) | melting temperature (HeLa Kyoto [2]; cell cycle stage: mitosis) | solubility change mitosis (log2) (HeLa Kyoto [3]) | melting temperature (HeLa Kyoto [2]; cell cycle stage: G1/S) |
| --- | --- | --- | --- | --- |
| MMSIKAFTLVSAVERELLMGDKERVNIECVECCGRDLYVGTNDCFVYHFLLEERPVPAGPATFTATKQLQRHLGFKKPVNELRAASALNRLLVLCDNSISLVNMLNLEPVPSGARIKGAATFALNENPVSGDPFCVEVCIISVKRRTIQMFLVYEDRVQIVKEVSTAEQPLAVAVDGHFLCLALTTQYIIHNYSTGVSQDLFPYCSEERPPIVKRIGRQEFLLAGPGGLGMFATVAGISQRAPVHWSENVIGAAVSFPYVIALDDEFITVHSMLDQQQKQTLPFKEGHILQDFEGRVIVATSKGVYILVPLPLEKQIQDLLASRRVEEALVLAKGARRNIPKEKFQVMYRRILQQAGFIQFAQLQFLEAKELFRSGQLDVRELISLYPFLLPTSSSFTRSHPPLHEYADLNQLTQGDQEKMAKCKRFLMSYLNEVRSTEVANGYKEDIDTALLKLYAEADHDSLLDLLVTENFCLLTDSAAWLEKHKKYFALGLLYHYNNQDAAAVQLWVNIVNGDVQDSTRSDLYEYIVDFLTYCLDEELVWAYADWVLQKSEEVGVQVFTKRPLDEQQKNSFNPDDIINCLKKYPKALVKYLEHLVIDKRLQKEEYHTHLAVLYLEEVLLQRASASGKGAEATETQAKLRRLLQKSDLYRVHFLLERLQGAGLPMESAILHGKLGEHEKALHILVHELQDFAAAEDYCLWCSEGRDPPHRQQLFHTLLAIYLHAGPTAHELAVAAVDLLNRHATEFDAAQVLQMLPDTWSVQLLCPFLMGAMRDSIHARRTMQVALGLARSENLIYTYDKMKLKGSSIQLSDKKLCQICQNPFCEPVFVRYPNGGLVHTHCAASRHTNPSSSSPGTRT [TGFBRAP1] | -0.0452 | 51.1 °C | -0.0966 |  |
| MNNLNDPPNWNIRPNSRADGGDGSRWNYALLVPMLGLAAFRWIWSRESQKEVEKEREAYRRRTAAFQQDLEAKYHAMISENRRAVAQLSLELEKEQNRTASYREALISQGRKLVEEKKLLEQERAQVMQEKRQVQPLRSAYLSCLQREENWQRRARLLLKEFEAVLTERQNIYCSLFLPRSKRLEIEKSLLVRASVDPVAADLEMAAGLTDIFQHDTYCGDVWNTNKRQNGRLMWLYLKYWELVVELKKFKRVEEAILEK [CCDC127] | 0.0789 | 52.5 °C | 0.115 | 54 °C |
| MNRVNDPLIFIRDIKPGLKNLNVVFIVLEIGRVTKTKDGHEVRSCKVADKTGSITISVWDEIGGLIQPGDIIRLTRGYASMWKGCLTLYTGRGGELQKIGEFCMVYSEVPNFSEPNPDYRGQQNKGAQSEQKNNSMNSNMGTGTFGPVGNGVHTGPESREHQFSHAGRSNGRGLINPQLQGTASNQTVMTTISNGRDPRRAFKR [NABP1] | 0.0163 | 50.7 °C | -0.222 |  |
| MNSTEFTEDVEEVLKSITVKVETEAEDAALDCSVNSRTSEKHSVDSVLTALQDSSKRKQLVSDGLLDSVPGVKRRRLIPEALLAGMRNRENSSPCQGNGEQAGRGRSLGNVWPGEEEPCNDATTPSYKKPLYGISHKIMEKKNPPSGDLLNVYELFEKANASNSPSSLRLLNEPQKRDCGSTGAGTDNDPNIYFLIQKMFYMLNTLTSNMSQLHSKVDLLSLEVSRIKKQVSPTEMVAKFQPPPEYQLTAAELKQIVDQSLSGGDLACRLLVQLFPELFSDVDFSRGCSACGFAAKRKLESLHLQLIRNYVEVYYPSVKDTAVWQAECLPQLNDFFSRFWAQREMEDSQPSGQVASFFEAEQVDPGHFLDNKDQEEALSLDRSSTIASDHVVDTQDLTEFLDEASSPGEFAVFLLHRLFPELFDHRKLGEQYSCYGDGGKQELDPQRLQIIRNYTEIYFPDMQEEEAWLQQCAQRINDELEGLGLDAGSEGDPPRDDCYDSSSLPDDISVVKVEDSFEGERPGRRSKKIWLVPIDFDKLEIPQPDFEVPGADCLLSKEQLRSIYESSLSIGNFASRLLVHLFPELFTHENLRKQYNCSGSLGKKQLDPSRIKLIRHYVQLLYPRAKNDRVWTLEFVGKLDERCRRRDTEQRRSYQQQRKVHVPGPECRDLTSYAINPERFREEFEGPPLPPERSSKDFCKIPLDELVVPSPDFPVPSPYLLSDKEVREIVQQSLSVGNFAARLLVRLFPELFTAENLRLQYNHSGACNKKQLDPTRLRLIRHYVEAVYPVEKMEEVWHYECIPSIDERCRRPNRKKCDILKKAKKVEK [BEND3] | -0.105 | 48.1 °C | 0.152 |  |
| MPGGCSRGPAAGDGRLRLARLALVLLGWVSSSSPTSSASSFSSSAPFLASAVSAQPPLPDQCPALCECSEAARTVKCVNRNLTEVPTDLPAYVRNLFLTGNQLAVLPAGAFARRPPLAELAALNLSGSRLDEVRAGAFEHLPSLRQLDLSHNPLADLSPFAFSGSNASVSAPSPLVELILNHIVPPEDERQNRSFEGMVVAALLAGRALQGLRRLELASNHFLYLPRDVLAQLPSLRHLDLSNNSLVSLTYVSFRNLTHLESLHLEDNALKVLHNGTLAELQGLPHIRVFLDNNPWVCDCHMADMVTWLKETEVVQGKDRLTCAYPEKMRNRVLLELNSADLDCDPILPPSLQTSYVFLGIVLALIGAIFLLVLYLNRKGIKKWMHNIRDACRDHMEGYHYRYEINADPRLTNLSSNSDV [TPBG] | 0.234 | 53.4 °C | 0.104 | 53.4 °C |
| MPLRKMKIPFLLLFFLWEAESHAASRPNIILVMADDLGIGDPGCYGNKTIRTPNIDRLASGGVKLTQHLAASPLCTPSRAAFMTGRYPVRSGMASWSRTGVFLFTASSGGLPTDEITFAKLLKDQGYSTALIGKWHLGMSCHSKTDFCHHPLHHGFNYFYGISLTNLRDCKPGEGSVFTTGFKRLVFLPLQIVGVTLLTLAALNCLGLLHVPLGVFFSLLFLAALILTLFLGFLHYFRPLNCFMMRNYEIIQQPMSYDNLTQRLTVEAAQFIQRNTETPFLLVLSYLHVHTALFSSKDFAGKSQHGVYGDAVEEMDWSVGQILNLLDELRLANDTLIYFTSDQGAHVEEVSSKGEIHGGSNGIYKGGKANNWEGGIRVPGILRWPRVIQAGQKIDEPTSNMDIFPTVAKLAGAPLPEDRIIDGRDLMPLLEGKSQRSDHEFLFHYCNAYLNAVRWHPQNSTSIWKAFFFTPNFNPVGSNGCFATHVCFCFGSYVTHHDPPLLFDISKDPRERNPLTPASEPRFYEILKVMQEAADRHTQTLPEVPDQFSWNNFLWKPWLQLCCPSTGLSCQCDREKQDKRLSR | 0.0818 | 55.3 °C | -0.0688 | 55.8 °C |
| MPVKKKRKSPGVAAAVAEDGGLKKCKISSYCRSQPPARLISGEEHFSSKKCLAWFYEYAGPDEVVGPEGMEKFCEDIGVEPENIIMLVLAWKLEAESMGFFTKEEWLKGMTSLQCDCTEKLQNKFDFLRSQLNDISSFKNIYRYAFDFARDKDQRSLDIDTAKSMLALLLGRTWPLFSVFYQYLEQSKYRVMNKDQWYNVLEFSRTVHADLSNYDEDGAWPVLLDEFVEWQKVRQTS [DCUN1D5] | 0.214 | 47.5 °C | -0.0762 |  |
| MRCCHICKLPGRVMGIRVLRLSLVVILVLLLVAGALTALLPSVKEDKMLMLRREIKSQGKSTMDSFTLIMQTYNRTDLLLKLLNHYQAVPNLHKVIVVWNNIGEKAPDELWNSLGPHPIPVIFKQQTANRMRNRLQVFPELETNAVLMVDDDTLISTPDLVFAFSVWQQFPDQIVGFVPRKHVSTSSGIYSYGSFEMQAPGSGNGDQYSMVLIGASFFNSKYLELFQRQPAAVHALIDDTQNCDDIAMNFIIAKHIGKTSGIFVKPVNMDNLEKETNSGYSGMWHRAEHALQRSYCINKLVNIYDSMPLRYSNIMISQFGFPYANYKRKI [EXTL2] | 0.132 | 58.5 °C | -0.23 | 56.7 °C |
| MRRAWILLTLGLVACVSAESRAELTSDKDMYLDNSSIEEASGVYPIDDDDYASASGSGADEDVESPELTTSRPLPKILLTSAAPKVETTTLNIQNKIPAQTKSPEETDKEKVHLSDSERKMDPAEEDTNVYTEKHSDSLFKRTEVLAAVIAGGVIGFLFAIFLILLLVYRMRKKDEGSYDLGERKPSSAAYQKAPTKEFYA [SDC2] | -0.422 | 59.2 °C | -0.902 | 55.6 °C |
| MSAARESHPHGVKRSASPDDDLGSSNWEAADLGNEERKQKFLRLMGAGKKEHTGRLVIGDHKSTSHFRTGEEDKKINEELESQYQQSMDSKLSGRYRRHCGLGFSEVEDHDGEGDVAGDDDDDDDDSPDPESPDDSESDSESEKEESAEELQAAEHPDEVEDPKNKKDAKSNYKMMFVKSSGS [SMAP] | 0.338 |  | 0.413 | 55 °C |
| MSDKPDMAEIEKFDKSKLKKTETQEKNPLPSKETIEQEKQAGES [TMSB4X] | -0.978 | 50.4 °C | 0.302 | 52.9 °C |
| MSDLEDDETPQLSAHALAALQEFYAEQKQQIEPGEDDKYNIGIIEENWQLSQFWYSQETALQLAQEAIAAVGEGGRIACVSAPSVYQKLRELCRENFSIYIFEYDKRFAMYGEEFIFYDYNNPLDLPERIAAHSFDIVIADPPYLSEECLRKTSETVKYLTRGKILLCTGAIMEEQAAELLGVKMCTFVPRHTRNLANEFRCYVNYDSGLDCGI [N6AMT2] | -0.331 | 50.6 °C | 0.0973 |  |
| MSGSVLFTAGERWRCFLTPSRSSLYWALHNFCCRKKSTTPKKITPNVTFCDENAKEPENALDKLFSSEQQASILHVLNTASTKELEAFRLLRGRRSINIVEHRENFGPFQNLESLMNVPLFKYKSTVQVCNSILCPKTGREKRKSPENRFLRKLLKPDIERERLKAVNSIISIVFGTRRIAWAHLDRKLTVLDWQQSDRWSLMRGIYSSSVYLEEISSIISKMPKADFYVLEKTGLSIQNSSLFPILLHFHIMEAMLYALLNKTFAQDGQHQVLSMNRNAVGKHFELMIGDSRTSGKELVKQFLFDSILKADPRVFFPSDKIVHYRQMFLSTELQRVEELYDSLLQAIAFYELAVFDSQP [TEFM] | -0.375 | 49.1 °C | 0.119 | 50.9 °C |
| MSLKMDNRDVAGKANRWFGVAPPKSGKMNMNILHQEELIAQKKREIEAKMEQKAKQNQVASPQPPHPGEITNAHNSSCISNKFANDGSFLQQFLKLQKAQTSTDAPTSAPSAPPSTPTPSAGKRSLLISRRTGLGLASLPGPVKSYSHAKQLPVAHRPSVFQSPDEDEEEDYEQWLEIKVSPPEGAETRKVIEKLARFVAEGGPELEKVAMEDYKDNPAFAFLHDKNSREFLYYRKKVAEIRKEAQKSQAASQKVSPPEDEEVKNLAEKLARFIADGGPEVETIALQNNRENQAFSFLYEPNSQGYKYYRQKLEEFRKAKASSTGSFTAPDPGLKRKSPPEALSGSLPPATTCPASSTPAPTIIPAPAAPGKPASAATVKRKRKSRWGPEEDKVELPPAELVQRDVDASPSPLSVQDLKGLGYEKGKPVGLVGVTELSDAQKKQLKEQQEMQQMYDMIMQHKRAMQDMQLLWEKAVQQHQHGYDSDEEVDSELGTWEHQLRRMEMDKTREWAEQLTKMGRGKHFIGDFLPPDELEKFMETFKALKEGREPDYSEYKEFKLTVENIGYQMLMKMGWKEGEGLGSEGQGIKNPVNKGTTTVDGAGFGIDRPAELSKEDDEYEAFRKRMMLAYRFRPNPLNNPRRPYY [SUGP1] | 0.221 | 50.8 °C | 0.255 | 47.3 °C |
| MSLVIRNLQRVIPIRRAPLRSKIEIVRRILGVQKFDLGIICVDNKNIQHINRIYRDRNVPTDVLSFPFHEHLKAGEFPQPDFPDDYNLGDIFLGVEYIFHQCKENEDYNDVLTVTATHGLCHLLGFTHGTEAEWQQMFQKEKAVLDELGRRTGTRLQPLTRGLFGGS [YBEY] | -0.21 | 49.7 °C | 0.0965 | 45.4 °C |
| MSQAEFEKAAEEVRHLKTKPSDEEMLFIYGHYKQATVGDINTERPGMLDFTGKAKWDAWNELKGTSKEDAMKAYINKVEELKKKYGI [DBI] | -0.236 | 53.8 °C | 0.148 | 53.7 °C |
| MSSKKAKTKTTKKRPQRATSNVFAMFDQSQIQEFKEAFNMIDQNRDGFIDKEDLHDMLASLGKNPTDAYLDAMMNEAPGPINFTMFLTMFGEKLNGTDPEDVIRNAFACFDEEATGTIQEDYLRELLTTMGDRFTDEEVDELYREAPIDKKGNFNYIEFTRILKHGAKDKDD [MYL12B] | 0.24 | 52.7 °C | 0.538 | 54 °C |
